The target in this test is GST fusion of the SET domain of Trithorax, GST-TrxSET (Drosophila). The test can be described thus: pull-down; 1 μg GST-E(z)SET or GST-TrxSET immobilised on GSH-agarose, mixed 2 h at 4 °C with pre-cleared reticulocyte lysate holding 35S-Asx or its deletion fragments; washes with 0.6 M NaCl, pH 7.9; SDS-PAGE and autoradiography, densitometry relative to GST.
GST fusion of the SET domain of Trithorax, GST-TrxSET (Drosophila), sequence (P20659 3583-3709): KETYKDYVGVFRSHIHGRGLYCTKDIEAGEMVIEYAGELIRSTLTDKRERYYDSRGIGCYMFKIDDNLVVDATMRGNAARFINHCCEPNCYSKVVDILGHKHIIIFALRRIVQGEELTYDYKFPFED

The substance “full-length Additional sex combs (Asx), 35S-methionine-labelled, in vitro translated, A(1-1669) (from UniProt Q9V727 1-1669) (natural protein)” gave a fold weaker than the Asx-E(z)(SET) interaction of 5 fold.
